Laboratory results published in patent US11723946B2, “Methods for regulating transcription of multiple genes and expression of multiple targets” (CHINA MEDICAL UNIVERSITY, priority 2014, dated 2023).
Where two headings read alike, the source gives them in different places.

Tests used:
[1] = tested on: Column (IL-1β and TNF signaling pathway genes); settings: Down-regulated, 2.5 mmol/kg daily, 7 days
Procedure: (§1) The wild-type FVB mice were divided into the control group and the experimental group, wherein the mice in the experimental group were daily administered with 20 μl peptide-containing solution that contains 2.5 mmol/kg of the present peptide for 7 days. Moreover, the mice in the control group were daily administrated with 20 μl PBS solution for 7 days.
(§2) After the daily administration, the tissues of column, muscle, fat pad, liver and kidney were collected for analyzing the expression of multiple targets by system biology analysis. Herein, the altered expressions of the targets in the genome were determined by using DNA microarray which is a well-established tool for systematic biology analysis. Furthermore, the results of the DNA microarray were further categorized and analyzed by bioinformatics analysis to determine the effect and affected signaling pathways of the present polypeptide. Therefore, it can determine the downstream targets of the present polypeptide comprising the amino acid sequence of SEQ ID No. 1 by the mechanism investigation through microarray analysis and gene expression profile. The detail steps including:
(§3) (1) RNA preparation: The total RNA was extracted from the tissue by using RNeasy Mini Kit (Qiagen, Valencia, Calif., USA). The amount of the extracted total RNA was measured by Beckman DU800 spectrophotometer (Beckman Coulter, Fullerton, Calif., USA). In the next step, the quality of the RNA sample with A260/A280 ratio more than 1.8 was further evaluated by Agilent 2100 bioanalyzer (Agilent Technologies, Santa Clara, Calif., USA). When with the RNA integrity number of the sample is more than 8.0, it would be analyzed by the following microarray analysis.
(§4) (2) DNA microarray analysis: The procedure of DNA microarray analysis was conducted according to the reference (Cheng, 2007). Briefly, 5 μg of total RNA was amplified by in vitro transcription using MessageAmp™ aRNA kit (Ambion). In the following, the fluorescence dye, Cy5, was chemically labeled on the amplified RNA (aRNA). After the labeling, the fluorescence labeled aRNA was hybridized with Whole Genome OneArray™ in hybridization buffer (Phalanx Biotech Group, Taiwan) on cover slide. Following the hybridization reaction at 50° C. over-night, the non-specific binding on the chip was washed by three washing steps. The washed chip was dried by centrifugation and was scanned by Axon 4000 scanner (Molecular Devices, Sunnyvale, Calif., USA) to measure the fluorescence signals. The fluorescence intensity of Cy5 on each spots was further analyzed by genepix 4.1 (Molecular Devices). First, the signals of each spot were adjusted by deducting the intensity of background. In the next step, the spots including the probes of internal controls or the spots with the signal-to-noise ratios less than […] would be removed. The qualified spots were normalized by limma package which is belonged to R console (Smyth, 2005).
(§5) (3). Analysis of the functional mechanism and affected signaling pathways by using bioinformatics software: The altered downstream targets, functional mechanisms, affected signaling pathways and the disease relevance were investigated by using the bioinformatics software such as Medical Subject Headings (MeSH, http://www.nlm.nih.gov/mesh/meshhome.html) and BiblioSphere Pathway Edition.

[2] = tested on: Kidney (Diabetes; Nephrosis genes); settings: Down-regulated, 2.5 mmol/kg daily, 7 days
Procedure: as §1, §2, §3, §4, §5

[3] = tested on: Liver (Fatty liver genes); settings: Down-regulated, 2.5 mmol/kg daily, 7 days
Procedure: as §1, §2, §3, §4, §5

[4] = tested on: NF-κB; experiment: Whole animal bioluminescent imaging, LPS-induced NF-κB/luc transgenic mice; type: in vivo
Source text: Mice: The NF-κB/luc transgenic mice bearing the luciferase transgene driven by two copies of the NF-kappaB regulatory elements were mated with wild-type FVB mice to generate the hybrid NF-κB/luc transgenic offspring for the experiments. Whole animal bioluminescent imaging: 15 mice with age of 6˜8 weeks were randomly divided into three groups. The group 1 was the blank group; the group 2 was control group; and the group 3 was experimental group. The mice of the group 2 and the group 3 were administration with 100 ul of […] lipopolysaccharide (LSP) solution to induce the inflammation in the mice by intraperitoneal injection (IP injection). As the blank control, the mice of group 1 were administered with 100 μl of PBS by IP injection. After the LPS-injection for 5 minutes, the mice of the group 3 were further injected with 20 μl solution that contains 0.5 mg/Kg of the present polypeptide by IP injection. In contrast, the mice of the group 2 and the […] were injected with 20 μul of water. […] For in vivo imaging mice were anesthetized with isoflurane and injected intraperitoneally with 150 mg/kg luciferin. After 10 minutes, the mice were placed face up and imaged for 1 min with the camera set at the highest sensitivity by IVIS Imaging System-200 (Series Xenogen Hopkinton, Mass.). The photons emitted from the tissues were quantified by Living Images software (Xenogen, Hopkinton, Mass.) and were shown in FIG. 4A. In the FIG. 4A, the Y-axis shown the signal strength (photons/sec) that stands for total photons diffused from the mice.

[5] = tested on: IL-1β; experiment: Immunohistochemistry staining of organs, LPS-induced mice; type: in vivo; settings: group 3 vs group 2 (LPS)
Procedure: (§6) Immunohistochemistry (IHC) would be known by an ordinary person skilled in the art. The organs were collected from the mice of the each group for paraffin embedding and histology section. The parafilm-embedded organs were cut into […] sections, deparaffinized in xylene and then rehydrated in graded alcohol. Endogenous peroxidase was quenched with 3% hydrogen peroxide in methanol for 15 mins and the nonspecific binding was blocked with 1% bovine serum albumin at room temperature for 1 hour. The blocked sections were further incubated with 50-folds diluted mouse monoclonal antibodies against p56, TNF-α or IL-1β proteins at 4° C. for 16-18 hours, respectively and then incubated with biotinylated secondary antibodies (Zymed Laboratories, South San Francisco, Calif.) that against the Fc fragment of the co-responding first antibody at room temperature for 20 minutes. Finally, the slides were incubated with avidin-biotin complex reagent and stained with 3,3′-diaminobenzidine according to manufacturer's protocol (Histostain®-Plus Kit, Zymed Laboratories, South San Francisco, Calif.).

[6] = tested on: TNF-α; experiment: as above; type: in vivo; settings: group 3 vs group 2 (LPS)
Procedure: as §6

IL-1β, sequence (P10749 118-269): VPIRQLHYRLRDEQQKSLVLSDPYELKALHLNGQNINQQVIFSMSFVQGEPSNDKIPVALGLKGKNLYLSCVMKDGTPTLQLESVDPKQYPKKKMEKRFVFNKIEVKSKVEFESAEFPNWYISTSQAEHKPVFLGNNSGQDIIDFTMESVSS

B1: present polypeptide: polypeptide comprising the amino acid sequence of SEQ ID No. 1; made by peptide synthesis, recombinant expression or extraction from Momordica charantia (peptide, listed as Artificial synthsis)
chain: SRCQGKSSWPQLVGSTGAAAKAWIERENPRVRAVIIKVGSGATKDFRCDRVRVWVTERGIVARPPTIG
Fold, Ccl2 ([1]; IL-1β signaling pathway): 1.71 folds | Fold, Cdh2 ([1]; IL-1β signaling pathway): 1.73 folds | Fold, Icam1 ([1]; IL-1β signaling pathway): 2.27 folds | Fold, Pecam1 ([1]; IL-1β signaling pathway): 1.99 folds | Fold, Tnfrsf11b ([1]; IL-1β signaling pathway): 2.74 folds | Fold, ADIPOQ ([1]; TNF signaling pathway): 1.78 folds | Fold, Bcl3 ([1]; TNF signaling pathway): 1.72 folds | Fold, CD40 ([1]; TNF signaling pathway): 1.79 folds | Fold, Casp3 ([1]; TNF signaling pathway): 1.71 folds | Fold, Ikbke ([1]; TNF signaling pathway): 1.95 folds | Fold, Irs1 ([1]; TNF signaling pathway): 1.73 folds | Fold, Ltf ([1]; TNF signaling pathway): 1.99 folds | Fold, Mapk3 ([1]; TNF signaling pathway): 2.32 folds | Fold, Mapk9 ([1]; TNF signaling pathway): 1.53 folds | Fold, Rxra ([1]; TNF signaling pathway): 1.89 folds | Fold, Socs1 ([1]; TNF signaling pathway): 2.46 folds | Fold, Tnfrsf11b ([1]; TNF signaling pathway): 2.74 folds | Fold, Apoc3 [2]: 2.5 folds | Fold, Ctla4 [2]: 1.65 folds | Fold, Fabp2 [2]: 1.62 folds | Fold, Fgb [2]: 1.91 folds | Fold, Hp [2]: 2.35 folds | Fold, Aldh2 [3]: 2.5 folds | Fold, Ctla4 [3]: 1.56 folds | Fold, Cyp17a1 [3]: 1.52 folds | Fold, Mmp2 [3]: 2.11 folds | Fold, Mttp [3]: 3.53 folds | Fold, Sod2 [3]: 1.71 folds | suppression of luminescent intensity ([4]; group 3 (LPS + 0.5 mg/Kg polypeptide IP)): about 38% | average of luciferin value ([4]; group 3: LPS + 0.5 mg/Kg polypeptide IP, 4 hours after injection): 19.82×10^7 photons/sec | brown zone (active IL-1β signal) in tissue, IHC [5]: obviously less than the group 2 | brown zone (active TNF-α signal) in tissue, IHC [6]: obviously less than the group 2
